Here are results for one molecule from article doi:10.1101/2020.06.17.158394 (bioRxiv, 2020).

Experiment [1] addresses KaiC-EE (S. elongatus) (UniProt Q79PF4). Put plainly: fluorescence polarisation. In general terms: Polarisation of emitted light reports the rotation of a fluorescent probe.
Experiment [2] deals with T1, KaiC (S. elongatus, UniProt Q79PF4 1-519).
T1 sequence: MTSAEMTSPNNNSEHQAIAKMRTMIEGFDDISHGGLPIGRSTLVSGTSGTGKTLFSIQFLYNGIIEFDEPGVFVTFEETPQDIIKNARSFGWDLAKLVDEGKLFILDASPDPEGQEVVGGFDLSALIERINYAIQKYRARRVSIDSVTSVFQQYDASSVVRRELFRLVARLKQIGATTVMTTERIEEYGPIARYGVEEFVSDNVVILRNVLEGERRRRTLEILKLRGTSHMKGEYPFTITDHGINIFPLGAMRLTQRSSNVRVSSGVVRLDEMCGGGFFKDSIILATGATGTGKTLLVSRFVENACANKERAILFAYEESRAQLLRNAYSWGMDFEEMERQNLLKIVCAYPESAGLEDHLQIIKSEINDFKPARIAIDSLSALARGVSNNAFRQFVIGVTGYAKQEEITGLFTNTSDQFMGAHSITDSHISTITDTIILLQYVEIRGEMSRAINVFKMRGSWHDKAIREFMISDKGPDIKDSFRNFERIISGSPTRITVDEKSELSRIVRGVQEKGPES
Put plainly: fluorescence polarisation.

B1: full-length SasA (enzyme)
chain: MGESLSPQALAQPLLLQLFVDTRPLSQHIVQRVKNILAAVEATVPISLQVINVADQPQLVEYYRLVVTPALVKIGPGSRQVLSGIDLTDQLANQLPQWLVQQEAFFADREPPEVNIPFTELGQPETPALQQADAFFQLQQQYADLSERTKFLEQVIALVAHDLRNPLTAALLAVDTIQIRSQSFSVATAKEMQGLCSLFDQARSQLREIERMIAEILEATRHSGESLRINPREVVFEPLLQQVLEQLHERWRSKQQQLITDVPGDLPTLYADPDRLRQVLVNLLDNAIKYTPPGGTITIAALHRTSQKVQISISDTGSGIPRDQLSVIFKNLVRLSRDSSQEGYGIGLSVCQRIVQAHFGRIWVASELGQGSTFHFTMPVYRYTMPC
For the molecule B1, the fold increase in affinity against SasAtrx in experiment [1] was over 100 fold. Also, the binding result in experiment [2] was “binds”.
